Data on two substances can be found in US20050238649A1.

The target of this experiment is human HER2 (ErbB2) receptor (human) (UniProt P04626). Briefly: cell-based or functional assay.

In turn, 4D5 Fab-MC-vc-PAB-MMAF, 1.5 MMAF/Ab returned an IC50, cell proliferation assay (CellTiter-Glo), BT474 cells of 0.04 µg ADC/ml and an IC50, cell proliferation assay (CellTiter-Glo), SK-BR-3 cells of 0.02 µg ADC/ml. With murine monoclonal antibody 4D5, the maximum inhibition of cell proliferation of SK-BR-3 cells was 66%.
